Experimental data taken from patent US20240360242A1 (KISOJI BIOTECHNOLOGY, published 2024).

Assays:
[1] = target: T1, recombinant human TROP2 extracellular domain (aa 1-274) comprising His tag (human, UniProt P09758 27-274); experiment: ELISA on coated recombinant human TROP2, 0.00256-200 nM, RLU
T1 construct: Used here for all assays on recombinant human TROP2 (ELISA, immunoblot, SPR, crystal), although only some of them name the catalogue number; also called human recombinant TROP2; recombinant human TROP2 protein; not shown: His tag
T1 sequence: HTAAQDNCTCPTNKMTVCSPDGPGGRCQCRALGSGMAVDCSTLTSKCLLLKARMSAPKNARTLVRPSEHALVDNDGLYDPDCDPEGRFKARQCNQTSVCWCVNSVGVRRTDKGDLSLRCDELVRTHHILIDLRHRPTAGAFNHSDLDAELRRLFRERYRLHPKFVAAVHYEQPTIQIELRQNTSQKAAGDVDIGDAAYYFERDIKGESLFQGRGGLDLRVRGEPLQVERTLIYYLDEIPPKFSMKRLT
Procedure: Human TROP2 recombinant proteins were coated on 96-well ELISA plates at the concentration of 1 μg/mL. Plates were covered with adhesive plate cover and stored at 4° C. overnight. The next day, plates were washed 3× with washing buffer (PBS with 0.1% Tween™ 20). Plates were blocked with 2% fat-free BSA in washing buffer for 1 hour at 37° C. During the incubation time, the TROP2 reference antibodies, as well as the humanized variants, were diluted in the blocking buffer to the indicated concentrations. […] After blocking, the blocking buffer was removed from the wells and 100 μL of anti-TROP2 sdAbs dilutions were transferred to the corresponding wells. Plates were covered with adhesive plates cover and incubated at 37° C. for 1 hour. During the primary antibody incubation, the secondary antibody (goat anti-human IgG, HRP conjugated) was diluted 1 in 5000 with the blocking buffer. Plates were washed 3× with blocking buffer, followed by secondary antibody incubation for another 1 hour at 37° C. After the secondary antibody incubation, plates were washed 3× with washing buffer and added with 100 μL of ELISA chemiluminescent substrate (Thermofisher). The luminescence signal was detected by SpectraMax i3x at […].

recombinant human EpCAM = target: T2, recombinant human EpCAM (human, UniProt P16422 24-265); experiment: ELISA
T2 construct: also called rhEpCAM
T2 sequence (looked up): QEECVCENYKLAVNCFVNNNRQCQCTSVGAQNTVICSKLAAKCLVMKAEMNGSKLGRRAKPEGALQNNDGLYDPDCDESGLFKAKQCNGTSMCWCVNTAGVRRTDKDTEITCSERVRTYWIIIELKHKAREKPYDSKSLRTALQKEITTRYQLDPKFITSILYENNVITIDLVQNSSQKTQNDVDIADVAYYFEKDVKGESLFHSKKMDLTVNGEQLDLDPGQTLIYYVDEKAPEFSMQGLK

[2] = target: T3, recombinant human IGFBP-1 (human, UniProt P08833 26-259); experiment: ELISA
T3 construct: also called rhIGFB-1
T3 sequence (looked up): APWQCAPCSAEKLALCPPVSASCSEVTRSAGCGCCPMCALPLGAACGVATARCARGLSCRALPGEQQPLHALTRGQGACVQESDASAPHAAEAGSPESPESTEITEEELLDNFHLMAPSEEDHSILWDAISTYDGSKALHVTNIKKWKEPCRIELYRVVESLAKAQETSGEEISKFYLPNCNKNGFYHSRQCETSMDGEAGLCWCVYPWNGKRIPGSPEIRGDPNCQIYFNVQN

HEK-TROP2 Δ27-36 = target: T4, HEK-TROP2 Δ27-36; experiment: flow cytometry, 100 nM antibody, transiently transfected HEK cells, APC anti-human Fc
T4 construct: also called TROP2 delta 27-36
T4 membrane protein on transfected HEK cells: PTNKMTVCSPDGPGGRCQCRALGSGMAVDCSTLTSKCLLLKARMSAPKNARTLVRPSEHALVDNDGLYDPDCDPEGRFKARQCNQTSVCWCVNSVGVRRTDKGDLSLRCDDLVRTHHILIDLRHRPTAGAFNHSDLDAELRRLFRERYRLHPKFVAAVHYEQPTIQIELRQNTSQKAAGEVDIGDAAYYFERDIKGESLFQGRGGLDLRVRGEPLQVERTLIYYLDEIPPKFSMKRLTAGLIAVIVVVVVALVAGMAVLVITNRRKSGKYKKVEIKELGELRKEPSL
Procedure: (§1) To determine the effect of TROP2 truncations on the binding ability of anti-TROP2 sdAbs, the HEK parental cells were transiently transfected with human TROP2 mutants by lipofectamine. 24 hours after transfection, cells were collected and stained with anti-TROP2 antibodies (FIG. 13A and FIG. 13B). In brief, 1×10⁵ cells were incubated with an Fc receptor blocking antibody (1/100 dilution) for 10 minutes at room temperature. Anti-TROP2 antibodies were diluted in FACS staining buffer to 100 nM and added and incubated with cells for 30 minutes on ice. After washing three times with FACS staining buffer, APC-conjugated secondary antibodies recognizing the human Fc region (Biolegend, Cat #410712) were mixed with cells. After staining for 30 minutes, cells were washed three times, followed by resuspension into 100 μL of 7-Amino-Actinomycin D (7-AAD) solution (BD Biosciences, Cat #559925).

HEK-TROP2 Δ27-44 = target: T5, HEK-TROP2 Δ27-44; experiment: as above
T5 construct: also called TROP2 delta 27-44
T5 membrane protein on transfected HEK cells: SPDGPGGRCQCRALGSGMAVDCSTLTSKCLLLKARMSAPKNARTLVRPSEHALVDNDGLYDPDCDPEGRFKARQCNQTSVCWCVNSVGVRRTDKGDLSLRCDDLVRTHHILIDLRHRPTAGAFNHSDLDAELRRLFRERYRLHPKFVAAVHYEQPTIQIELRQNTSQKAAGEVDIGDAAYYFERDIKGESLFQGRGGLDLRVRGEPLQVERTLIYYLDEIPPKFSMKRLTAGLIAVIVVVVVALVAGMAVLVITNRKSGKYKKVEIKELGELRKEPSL
Procedure: as §1

[3] = target: T6, TROP2 delta 27-56 on HEK cells (human, UniProt P09758 1-323); experiment: as above
T6 construct: Human TROP2 with residues 27-56 deleted, transiently transfected into HEK cells; also called TROP2 with 27-56 regions truncated
T6 chain: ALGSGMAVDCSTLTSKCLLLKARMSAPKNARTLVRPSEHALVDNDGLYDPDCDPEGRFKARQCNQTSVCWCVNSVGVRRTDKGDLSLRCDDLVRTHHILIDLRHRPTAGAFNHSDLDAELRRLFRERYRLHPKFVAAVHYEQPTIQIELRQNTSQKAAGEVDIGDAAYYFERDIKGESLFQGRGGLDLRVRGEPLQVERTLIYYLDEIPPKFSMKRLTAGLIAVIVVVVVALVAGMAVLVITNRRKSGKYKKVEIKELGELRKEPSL
Procedure: as §1

[4] = target: T1, recombinant human TROP2 extracellular …; experiment: competitive ELISA on coated recombinant human TROP2, competitor 1428.6 pM His-tagged KD006, anti-His-HRP secondary Ab
Procedure: The epitope characterization was assessed by competitive ELISA (FIG. 8 and FIG. 9). Microplates were coated with human recombinant TROP2 at 4° C. overnight. After washing, plates were blocked with blocking buffer (PBS+2% BSA), for 1 hour at room temperature. Meanwhile, the dilution for anti-TROP2 VHH sdAbs was prepared with blocking buffer making two different dilutions depending on the tag. For sdAbs with His tag, the antibody was diluted to 28571.4 pM. For sdAbs without tag, antibodies were serially diluted from 2857142.9 pM to 0.29 pM (8 dilutions, 10×). […] After washing two times, the mixed antibody contents were added into the wells and the plates were incubated for 2 hours at room temperature. The HRP-conjugated anti-6× His was diluted to 1:5000 and added to the wells after washing three times. Any unbound conjugate was removed by washing after 1 hour incubation at room temperature, and the colorimetric reaction was performed by adding the same volume of Supersignal ELISA Pico Luminol/Enhancer and SuperSignal ELISA Pico Stable Peroxide Solution and detected on SpectraMax i3x Microplate Reader. Positive and negative controls were included in each plate.

B1: KD020 (antibody, V domains shown)
VH: EVQLVESGGGLVQPGGSLRLSCAASGFPFSSADMHWVRQAPGKGLVWVSRINADGSKTSYADTVKGRFTISRDNAKNTLYLQMNSLRAEDTAVYYCARAKLTDTHYVEDYWGQGTLVTVSS
notes: KD002 humanized variant
B1: binds [1].

B2: KD006 (antibody, human IgG1, V domains shown)
VH: QVQLQESGGGLVQAGNSLRLSCVASVRTFSTKAMGWFRQAPGKEREFTAAISESGSTYYADSVKDRFTISRDNVKNTVYLQMNSLKPEDTAVYYCGVKWYSGSFDDTRSYDYWGQGTQVTVSS
notes: also called anti-TROP2 sdAb KD006
B2: no binding (recombinant human EpCAM); no binding [2]; binds (HEK-TROP2 Δ27-36). For the same binder, the binding result (HEK-TROP2 Δ27-44) was “binds”, the binding result [3] was “binds” and the “IC50 (read off the curve)” value [4] was about 4 nM.
